In the supplement of paper PMC10724198:
± gives the standard deviation of the averaged measurements.

Tested on: Saccharomyces cerevisiae
Test: protein stability index of tFT-peptide fusion (C-terminal peptide) (PSI (0-1 scale)); higher = more stable (slower turnover)
Conditions: temperature: 30 C
Procedure: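 MPS profiling in S. cerevisiae of the yeast C-terminome library: the last 12 aa of each annotated ORF are fused to the C-terminus of a sfGFP-mCherry timer, after a GGGS linker. Cells are FACS-sorted into 8 mCherry/sfGFP bins and deep-sequenced. PSI runs from 0 (unstable) to 1 (stable); wild type and das1Δ backgrounds, two technical replicates each.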

[1] = genetic background: das1 deletion

Sequence | protein stability index [1] | protein stability index (genetic background: wild type)
PVHLEAIDLIDC [HSP150 C-terminal 12 aa] | 0.7087 ± 0.0034 | 0.714 ± 0.024
VSLLLNSLALFF [YGL204C C-terminal 12 aa] | 0.688 ± 0.021 | 0.6623 ± 0.0058
DFFREVKYGKKQ [ODC1 C-terminal 12 aa] | 0.7097 ± 0.0027 | 0.72329 ± 0.00028
LLYHMDLLLKVK [VID28 C-terminal 12 aa] | 0.299 ± 0.026 | 0.365 ± 0.015
DRIAAQTLEEDE [RPS19A C-terminal 12 aa] | 0.687 ± 0.031 | 0.693 ± 0.05
VVPAVLFAFLLV [YDL118W C-terminal 12 aa] | 0.446 ± 0.0098 | 0.4 ± 0.0053
SRGQNTHPSVDK [ESC1 C-terminal 12 aa] | 0.699 ± 0.012 | 0.692 ± 0.029
GPLLDYLSSDED [CWC2 C-terminal 12 aa] | 0.7139 ± 0.0039 | 0.693 ± 0.0055
WGSIGQKLRRSA [YOL118C C-terminal 12 aa] | 0.704 ± 0.012 | 0.728 ± 0.015
VKSDSGSSCTIM [RHO3 C-terminal 12 aa] | 0.721 ± 0.011 | 0.711 ± 0.023
TGNGPNLDNLKY [ARA1 C-terminal 12 aa] | 0.722 ± 0.0074 | 0.641 ± 0.019
IDFLVEEATLNE [YAP3 C-terminal 12 aa] | 0.70065 ± 9.1e-05 | 0.673 ± 0.032
GGLSDIGKNTSN [HUG1 C-terminal 12 aa] | 0.693 ± 0.013 | 0.684 ± 0.016
HEVQNAEQEVAQ [MAK16 C-terminal 12 aa] | 0.673 ± 0.0074 | 0.681 ± 0.034
MTGTCFMTDLAP [YKL097C C-terminal 12 aa] | 0.721 ± 0.024 | 0.695 ± 0.021
YAINSGARFDLS [HUL5 C-terminal 12 aa] | 0.713 ± 0.025 | 0.687 ± 0.0069
DAKNANEKNKTY [PIS1 C-terminal 12 aa] | 0.687 ± 0.035 | 0.42 ± 0.033
DIMVFEISNCRV [HIS1 C-terminal 12 aa] | 0.6816 ± 0.0057 | 0.73 ± 0.052
IIQKETQSAGDK [PZF1 C-terminal 12 aa] | 0.661 ± 0.013 | 0.678 ± 0.024
LLGAITALFGLI [PLB2 C-terminal 12 aa] | 0.686 ± 0.034 | 0.658 ± 0.029
KVIRGKGFKLPK [ERD2 C-terminal 12 aa] | 0.675 ± 0.0093 | 0.667 ± 0.036

Sequence | protein stability index [1] | protein stability index (genetic background: wild type)
DETIKLKDKKIK [MRPL6 C-terminal 12 aa] | 0.714 ± 0.012 | 0.655 ± 0.028
HELKTHLPLNLI [SMT1 C-terminal 12 aa] | 0.707 ± 0.018 | 0.697 ± 0.037
VFQRAIEKALGE [STR2 C-terminal 12 aa] | 0.707 ± 0.011 | 0.716 ± 0.013
RNSPSYTGDHKT [YOR072W-A C-terminal 12 aa] | 0.722 ± 0.02 | 0.6928 ± 0.0067
SSNEDKKGMCKL [IDP3 C-terminal 12 aa] | 0.736 ± 0.048 | 0.901 ± 0.037
EESDSPESTAFY [PMC1 C-terminal 12 aa] | 0.699 ± 0.01 | 0.6671 ± 0.0055
GGRNQYGGDDDY [DDR48 C-terminal 12 aa] | 0.698 ± 0.015 | 0.6858 ± 0.0067
ALQVLEERMVNP [YOL107W C-terminal 12 aa] | 0.7046 ± 0.003 | 0.699 ± 0.0077
DDGIATYNNTQG [KNS1 C-terminal 12 aa] | 0.693 ± 0.03 | 0.72 ± 0.027
GLQFHFKAEHKD [PHO86 C-terminal 12 aa] | 0.701 ± 0.014 | 0.686 ± 0.058
PSYCSLRWSHRT [YLR169W C-terminal 12 aa] | 0.7331 ± 0.006 | 0.705 ± 0.029
SLEHFIDSVSSL [TRP4 C-terminal 12 aa] | 0.7199 ± 0.0016 | 0.672 ± 0.013
LRVYENFQKFIK [YMR262W C-terminal 12 aa] | 0.72 ± 0.054 | 0.705 ± 0.04
YQCSETSTPRNT [GIC1 C-terminal 12 aa] | 0.723 ± 0.025 | 0.675 ± 0.012
LVRFIEAEKFVG [SNX3 C-terminal 12 aa] | 0.7119 ± 0.003 | 0.6912 ± 0.0047
CWMLWLQDRPVC [YBL112C C-terminal 12 aa] | 0.627 ± 0.017 | 0.625 ± 0.02
KQKKQQAQPLRK [VRG4 C-terminal 12 aa] | 0.704 ± 0.012 | 0.673 ± 0.026
TVDYIASNPDAN [ACP1 C-terminal 12 aa] | 0.696 ± 0.0025 | 0.736 ± 0.038
EIGHMYQKIKKS [MNN11 C-terminal 12 aa] | 0.721 ± 0.0077 | 0.317 ± 0.014
KFLRYNPLEKRD [RPB10 C-terminal 12 aa] | 0.693 ± 0.012 | 0.704 ± 0.02
NVYRLTLMIFRL [YMR013W-A C-terminal 12 aa] | 0.428 ± 0.016 | 0.249 ± 0.0095

Sequence | protein stability index [1] | protein stability index (genetic background: wild type)
IVFTSVGAFNIL [YMR172C-A C-terminal 12 aa] | 0.717 ± 0.016 | 0.7349 ± 0.0029
QQEQDKKKKSNH [PRE6 C-terminal 12 aa] | 0.709 ± 0.013 | 0.49 ± 0.013
TLLNAQKEALKK [APT1 C-terminal 12 aa] | 0.6698 ± 0.0014 | 0.684 ± 0.03
ASGEYESDGSDD [RRN3 C-terminal 12 aa] | 0.677 ± 0.026 | 0.709 ± 0.063
IMSTASAQFVGN [YIR018C-A C-terminal 12 aa] | 0.687 ± 0.011 | 0.664 ± 0.0089
HQKTKTLASLSI [NUP49 C-terminal 12 aa] | 0.707 ± 0.014 | 0.631 ± 0.0093
KQIAKQSSKMMK [VMR1 C-terminal 12 aa] | 0.686 ± 0.0041 | 0.708 ± 0.03
IKNRLNGLKYRL [YML020W C-terminal 12 aa] | 0.751 ± 0.0083 | 0.6784 ± 0.0056
KGRALENLPDES [SSM4 C-terminal 12 aa] | 0.675 ± 0.016 | 0.692 ± 0.032
RGRGALVDSDDE [ELF1 C-terminal 12 aa] | 0.713 ± 0.026 | 0.674 ± 0.046
GLSDEEDSSEED [RRT14 C-terminal 12 aa] | 0.679 ± 0.00072 | 0.698 ± 0.021
LSIFGFDMFNRK [YMR1 C-terminal 12 aa] | 0.706 ± 0.046 | 0.703 ± 0.028
IQYYEEILRRGL [SPP1 C-terminal 12 aa] | 0.683 ± 0.024 | 0.677 ± 0.027
EKAKKSLSKMFS [CPR6 C-terminal 12 aa] | 0.688 ± 0.018 | 0.6927 ± 0.0033
DITYDDYKSIDF [SUT1 C-terminal 12 aa] | 0.694 ± 0.024 | 0.703 ± 0.095
SSESEAVKKAKS [CIC1 C-terminal 12 aa] | 0.668 ± 0.031 | 0.685 ± 0.062
ILTQGGHIIKKK [MNL2 C-terminal 12 aa] | 0.715 ± 0.017 | 0.6938 ± 0.0012
LTILRISELSMN [MRPL49 C-terminal 12 aa] | 0.7053 ± 0.0034 | 0.354 ± 0.0057
VSGKKFQNVRVL [YPL247C C-terminal 12 aa] | 0.705 ± 0.01 | 0.676 ± 0.04
ACIFNVATASIP [YGR270C-A C-terminal 12 aa] | 0.719 ± 0.036 | 0.692 ± 0.03
PFPLLRLSAPFK [OST3 C-terminal 12 aa] | 0.72 ± 0.0091 | 0.749 ± 0.061

Sequence | protein stability index [1] | protein stability index (genetic background: wild type)
SSAHMSSNAIQR [CDC10 C-terminal 12 aa] | 0.7077 ± 0.0023 | 0.721 ± 0.016
EVPGWQEYYDKL [YOR133W; YDR385W C-terminal 12 aa] | 0.72 ± 0.018 | 0.71 ± 0.016
IMDKLRAMKNRM [GLO2 C-terminal 12 aa] | 0.689 ± 0.053 | 0.663 ± 0.032
KEYISDQRKKRK [LOA1 C-terminal 12 aa] | 0.6823 ± 0.00078 | 0.722 ± 0.023
CCGSVLLWCLVV [YLR437C-A C-terminal 12 aa] | 0.4309 ± 0.0019 | 0.27 ± 0.0046
SPVPTKKKGFLR [CDC3 C-terminal 12 aa] | 0.705 ± 0.017 | 0.684 ± 0.012
KTFWDKFWNVVA [CAN1 C-terminal 12 aa] | 0.735 ± 0.03 | 0.193 ± 0.014
ATRRHLAHAPKL [DPI8 C-terminal 12 aa] | 0.799 ± 0.016 | 0.782 ± 0.064
ERPIVASTSPIA [TPH3 C-terminal 12 aa] | 0.71247 ± 4.2e-05 | 0.681 ± 0.0089
IKIFSERCDGKV [JJJ2 C-terminal 12 aa] | 0.7066 ± 0.002 | 0.683 ± 0.0069
YENEEIQRKRCI [YOR364W C-terminal 12 aa] | 0.696 ± 0.017 | 0.658 ± 0.0062
KQLQEGNRRHKL [DCI1 C-terminal 12 aa] | 0.768 ± 0.0084 | 0.808 ± 0.15
NIEKGVNFVASK [MDH1 C-terminal 12 aa] | 0.6837 ± 0.0049 | 0.677 ± 0.052
FYNIHDERIREQ [YKL162C-A C-terminal 12 aa] | 0.746 ± 0.013 | 0.657 ± 0.078
LKSATESFVATF [ATP1 C-terminal 12 aa] | 0.701 ± 0.0097 | 0.694 ± 0.014
CNLFSERKPVNH [YGL188C-A C-terminal 12 aa] | 0.6966 ± 0.0021 | 0.691 ± 0.011
AFKGHDNSDDKA [RIB2 C-terminal 12 aa] | 0.706 ± 0.017 | 0.666 ± 0.025
AFGNGFNSSIRW [NRP1 C-terminal 12 aa] | 0.71 ± 0.012 | 0.68 ± 0.0089
PTPKALTNEKTH [MGR1 C-terminal 12 aa] | 0.687 ± 0.017 | 0.664 ± 0.015
